Reference: the RNAGym collection of RNA variant scans (doi:10.1073/pnas.2313332121)
Variants at the floor of the assay were thinned out.

B1: TPR 5TU (parent)
chain: GGAUCUUCUCGAUCUAACAAAAAAGACAAAUCUGCCACAAAGCUUGAGAGCAUCUUCGGAUGCAGAGGCGGCAGCCUUCGGUGGCGCGAUAGCGCCAACGUUCUCAACUAUGACACGCAAAACGCGUGCUCCGUUGAAUGGAGUUUAUCAUG

Variants of: B1
Assay: polymerase ribozyme fitness, log enrichment relative to wild type (log ratio); higher = more active; in vitro selection for triplet polymerase activity
Procedure, shortened: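 Only genotypes with ≥10 input reads and ≥1 read per output were kept after Illumina sequencing of input and output libraries. These libraries were PCR-built, transcribed mutants of each subunit of a heterodimeric triplet polymerase ribozyme, each put through one triplicate in vitro selection round with frozen incubation at −7 °C, gel excision of extended constructs, streptavidin-bead capture and RT-PCR. Fitness is a logarithmic ratio of genotype enrichment to wild-type enrichment, from inverse-variance-weighted replicate averages, with the logarithm in base 2.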

Polymerase ribozyme fitness (log ratio), -4.15:
GGAUCUUCUCGAUCUAACAAAAAAGACAUAUCUGCCACAAAGCUUGAGAGCAUCUUCGGAUGCAGAGGCGGCAGCCUUCGGUGGCGCGAUAGCGCCAACGUUCUCAACUAUGACACGCAAAACGCGUGCUCCGUUGAAUGGCGUUUAUCAUG [A29U A142C]

Polymerase ribozyme fitness (log ratio), -3.12:
GGAUCUUCUCGAUCUAACAAAAAAGACAACUCUGCCACAAAGCUUGAGAGCAUCUUCGGAUGCAGAGGCGGCAGCCUUCGGUGGCGCGAUAGCGCCAACGUUCUCAACUAUGACACGCAAAACGCGUGCUCCGUUGAAUGGAGUUUAUCAUG [A30C]

Polymerase ribozyme fitness (log ratio), ≤ -4.2:
GGAUCUUCUCGAUCUAACAAAAAAGACAACUCUGCCAGAAAGCUUGAGCGCAUCUUCGGAAGCAGCCGCGGCAGCCUUCGGUGGCGCGAUAGGGCCAACGUUCUCAACUUUGACACGCAAAACCCGUGCUCCGUUGAAUGGAAUUUAUCAUG [A30C C38G A49C U61A A66C G67C C93G A110U G124C G143A]
GGAUCUUCUCGAUCUAACAAAAAAGACAUAUCUGCCACAAAGCUUGAGAGCAUCUUAGGAAGCAGAGGCGGCAGCCUUCGGUGGCGCGAUAGCGCCAACGUUCUCAACUAUGACACGCAAUACGCGUGCUCCGUUGAAUGGAGUUUAUCAUG [A29U C57A U61A A121U]
GGAUCUUCUCGAUCUAACAAAAAAGACAUAUCUGCCACAAAGCUUGAGAGCAUCUUCGGAAGCAGAGGCGGCAUCCUUCGGUGGCGCGAUAGCGCCAACGUUCUCAACUAUGACACGAAAAACGCGUGCACCGUUGAAUGGAGUUUAUCAUG [A29U U61A G74U C118A U130A]
GGAUCUUCUCGAUCUAACAAAAAAGACAUAUCUGCCACAAAGCUUCAGACCAUCUUCGGAUGCAGAGGCGGCAGCCUUCGGUGGCGCGAUAGCGGCAACGUUCUCAACUAUGAGACGCAAAACGCGUGCUCCGUUGAAUGGAGUUUAUCAUG [A29U G46C G50C C95G C114G]
GGAUCUUCUCGAUCUAACAAAAAAGACAACUCUGCCACAAAGCUUGAGAGCAUCUUCGGCUGCAGAGGCGGCAGCCUUCGGUGGCGCGAUAGCGCCAACGUUCUCAACUAUGACACGCAAAACGCGUGCUCCGUUGAAUGGAGUUUAUCAUG [A30C A60C]
GGAUCUUCUCGAUCUAACAAAAAAGACAUAUCUGCCACAAAGCUUGAGAGCAUCUUCGGAUGCAGAGGCGGCAGCCUUCGGUGGCGCGAGAGCGUCAACGUUCUCAACUAUGACGCUCAUAACGCGUGCUCCGUUGAAUGGAGUUUAUCAUG [A29U U90G C95U A115G G117U A120U]
GGAUCUUCUCGAUCUAACAAAAAAGACAUAUCUGCCACAAAGCUUGAGAUCAUCAUCGGAUGCAGAGGCGGCAGCCUUCGGUGGCCCGAUAGCGCCAACGUUCUCAACUAUGACACGCAAAACGCGUGCUCCGUUGAAUGCAGUUUAUCAUG [A29U G50U U55A G86C G141C]
GGAUCUUCUCGAUCUAACAAAAAAGACAUAUCUGCCACAAAGCUUGAGAGCAUUUUCGGAUGCAGAGGCGGCAGCCUCCGGUGGCGCGAUAGCGCCAAGGUUCUCAACUAUGACAUGCAAAACGCGUGCUCCGUUGAAUGGAGUUUAUCAUG [A29U C54U U78C C99G C116U]
GGAUCUUCUCGAUCUAACAAAAAAGACAUAUCUGCCACAAAGCUUGAGAGCAUCUUCGGAUGCAGAGGCGGCAGCGUUCGGGGGCGCCAUAGCGCCAACGUUCUCAACUAUGACACGCAAAACGCGUGCUCCGUUGAAUGGAGUUUAUCAUG [A29U C76G U82G G88C]
GGAUCUUCUCGAUCUAACAAAAAAGACAACUCUGCCACAAAGCUUGAGAGCAUCUUCGGAUGCAGAGGCGGCUGCCUUCGGUGGGGCGAUAGGGCGAACGUUCUCAACUAUGACACGCAAAACGCGUGCUCCGUUGAAUGGAGUUUAUUAUG [A30C A73U C85G C93G C96G C149U]
GGAUCUUCUCGAUCUAACAAAAAAGACAUAUCUGCCACAAAGCUUGAGAGCAUCUUCGAAUGCAGAGGCGGCAGCCUUGUGUGUCGCGAUAGCGCCAACGUUCUCAACUAUGACACGCAAAACUCGUGCUCCGUUGAAUGGAGUUUAUCAUG [A29U G59A C79G G80U G84U G124U]
GGAUCUUCUCGAUCUAACAAAAAAGACAUAUUUCCCACAAAGCUUGAGAGCAUCUUCGGAUGCAGAGGCGGUAGCCUUCGGUGGCGCGAUAGCGACAACGUUCUCAACUAUGACACGCAAAACGCGUGCUCCGUUGAAUCGAGUUUAUCAUG [A29U C32U G34C C72U C95A G140C]
GGAUCUUCUCGAUCUAACAAAAAAGACAUAUCUGCCAAAAAGCUUGAGACCCUCUUCGGAUGCAGUGGCGGCACCCUUCGGUGGCGCGAUAGCGCCAACGUUCUCAAGUAUGACACGCAAAACGCGUGCUCAGUUGAAUGGAGUUUAUCAUG [A29U C38A G50C A52C A66U G74C C108G C132A]
GGAUCUUCUCGAUCUAACAAAAAAGACAACUCUGCCACACAGCUUGAGAGCAUCUACGGGUGCAGGGGCGGCAGCCUUCGGUGGCGCGUUAGAGCCAAUGUUCUCCACUAUGACACGCAAAACGCUUGCUUCGAUGAAUGGAGUUUAUCAUG [A30C A40C U56A A60G A66G A89U C93A C99U A106C G126U C131U U134A]
GGAUCUUCUCGAUCUAACAAAAAAGACAUAUCUGCCACAAAGCUUGAGAGCGUCUUCGGAUGCAGAGGCGGCAGCGUUCGGUGACGCGAUAGCGCCAACGUUCUCAACUAUGACAGGAAAAACGCGUGCUCCGUUGGAUGAAGUUUAUUAUC [A29U A52G C76G G84A C116G C118A A137G G141A C149U G152C]
GGAUCUUCUCGAUCUAACAAAAAAGACAUAUCUGCCACAAAGCUUGAGAGCAUCUUCGGAUGCAGAGACGGCAGCCUUCGAUGGCGCGAUAGCGCCAACGUUCUCAACUAUGACACGCAAAACGCGUGCUCCGUUGAAUGGAGUUUAUCAUG [A29U G68A G81A]
GGAUCUUCUCGAUCUAACAAAAAAGACAUAUCUGCCACAAAGCUUGAGAGCAUCUUCGGAUGCAGAGGCGGCAGCCUUCGGUGGCGCGAUAGCGCCAACGUUCUCAACUAUCACACGCAAGACGCGUGCUCCGUUUGAUGGAGUAUAUCAUG [A29U G112C A121G G136U A137G U145A]
GGAUCUUCUCGAUCUAACAAAAAAGACAUAUCUGCCACAAAGCUUGAGAGCAUCUUCGGAUGCAGAGGCGGCAGCCUUCGGUGGCGCGAUACCGUCAACGUUCUCCACUAUGAUACGCAAAACGCGUUCUCCGUUGAGUGGAGUUUAUCAUG [A29U G92C C95U A106C C114U G128U A138G]
GGAUCUUCUCGAUCUAACAAAAAAGACAACUUUGCUACAAAGCUUGAGAGCAUCUUCGGAUGCAGAGGCUGCAGCCUUCGGUGGCGCGAUAGCGCCAACGUUCUCAACUAUGACACGCAAAACGCGUGCUCCGUUGAAAGGCGUUUAUCAUG [A30C C32U C36U G70U U139A A142C]
GGAUCUUCUCGAUCUAACAAAAAAGACAACUCUGCAACAAAGCUUGAGAGCGUCUUCGGAUGCAGAGGCGGCAGCCUUCGGUGGCGCGAUAGCGCCAACGUUCUCAAAUAUGACACGCAAAACGCGUGCUCCGUUGAAUGGAGUUUAUCAUA [A30C C36A A52G C108A G152A]
GGAUCUUCUCGAUCUAACAAAAAAGACAUAUCUGCCACAAAGCUUGAGAGCAUCUUCGGAAGCAGAAGCGGCAGCCUUCGGUGGCGCGAUAGCGCUAACGUUCUCAACUAUGACACGCAAAACGCGUGCUCCGUUGAAUGGAGUUUAUCAUG [A29U U61A G67A C96U]
GGAUCUUCUCGAUCUAACAAAAAAGACAUAUCUGCCACAAAGCUUGAGAGCAUCUUCGGAUGCAGAGGCGGCAGCCUUCGGUGGCGCGAUAGCGCCAACGUUCUCAACUAUGACACGCAAAACUCGUGCUCCGUUGAAUGGAGUUUAUCAUG [A29U G124U]
GGAUCUUCUCGAUCUAACAAAAAAGACAUAUCUGCCACAAAGCUUGAGAGCAUCUUCGGAUGCAGAGGCGGCAGCCUUCGGUGGCGCGAUAGCGACAACGUUCUCAACUAUGACACGCAAAACGCGUGCUCCGCUGAAUCGAGUUUAUCAUG [A29U C95A U134C G140C]
GGAUCUUCUCGAUCUAACAAAAAAGACAUAUCUGCCACAAAGCUUGAGAUCAUCUUCGAAUGCAGAGGCGGCAGCCUUCGGUGGCGAGAUAGCGCCAACGUUCUCAACUAUGACACGCAAAACGCGUGCUCCGUUGAAUGGAGUUUAUCAUG [A29U G50U G59A C87A]
GGAUCUUCUCGAUCUAACAAAAAAGACAUAUCUGCCACAAAGCUUGAACGCAUCUUCGGAUGCAGAGGCGGCAGCCUUCGGUGGCGGGAUAGCGCCAACGUUCUCAACUAUGACACGCAAAACGCGUGCUCCGUUGAAUGGAGUUUAUCAUG [A29U G48A A49C C87G]
GGAUCUUCUCGAUCUAACAAAAAAGACAUAUCUGCCACAAAGCUUGAGAGCAUCUUCGGAUGCAGAGGCGGCAGCCAUCGGUGGCGCGAUAGCGGCAACGUUCUCAACUAUGACACGCAAAACGCGUGCUCCGUUGAAUGGAGUUUAUCAUG [A29U U77A C95G]
GGAUCUUCUCGAUCUAACAAAAAAGACAACUCUGCCACAAAGCUUGAGUGCAUCUUGGGAUGCAGAGGCGGCAGCCUUAGGUGGCGCGAUAGCGCUAACGUUCUCAUCUAUGACACGCAAAACGCGUGCUCCGUUGAAUGGAGUUUAUCAUG [A30C A49U C57G C79A C96U A107U]
GGAUCUUCUCGAUCUAACAAAAAAGACAUAUCUGCCACAAAGCUUCAGAGCAUCUUCGGAUGCAGAGGCGGCAGCCUUCGGUCGCGCGAUAGCGCCAACGUUCUCAAUUAUGACACGCAAAACGCGUGCUCCGUUGAAUGGAGUUUAUCAUG [A29U G46C G83C C108U]
GGAUCUUCUCGAUCUAACAAAAAAGACAUAUCUGCCACAAAGCUUGAGAGCAUCUUCGGAUGCAGAGGCGGCAGCCUUCGGUGGCGCGAUAGCGCCGACGUUCUCAACUAUGACACGCAAGACGCGUGCUCCGUUGAAUCGAGUUUAUCAUG [A29U A97G A121G G140C]
GGAUCUUCUCGAUCUAACAAAAAAGACAUAUCUGCCACAAAGCUUGAGAGCAUUUGUGGAUGCAGAGGCGGCAGCCUUCGGUGGCGCGAUAGUGCCAACGUUUUCAACUAUGACACGCAAAACGCGUGCUCCAUUGAAUGGAGUUUAUCAUG [A29U C54U U56G C57U C93U C103U G133A]
GGAUCUUCUCGAUCUAACAAAAAAGACAUAUGUGCCACAAAGCUUGAGAGCAUCUUCGGAUGCAGAGGCGGCAGUCGUCAGUGGCGCGAUAGCGCCAACGUUCUCAACUAUGACACGCAAAACGCGUGCUCCGUUGAAUGGAGUUUAUCAUG [A29U C32G C75U U77G G80A]
GGAUCUUCUCGAUCUAACAAAAAAGACAUAUCUGCCAUAAAGCUUGAGAGCAUCUUCGGAUGCUGAGGCGGCAGCCUUCGGUGGCGCAAUAGCGCCUACGUUCUCAACUAUGACAUGCAAAACGCGUGCUCCGUUGAAUGGAGUUUAUCAUG [A29U C38U A64U G88A A97U C116U]
GGAUCUUCUCGAUCUAACAAAAAAGACAUAUCUGCCACAAAGCUUGAGAGCAUCUUCGGAUGCAGAGGCGGCAGCCUUCGGUGGCGCGAUAGCGACAACGUUCUCGACUAUGACACGCAAAACGCGUGCUCCGAUGAAUGGAGUUUAUCAUG [A29U C95A A106G U134A]
GGAUCUUCUCGAUCUAACAAAAAAGACAUAUCUGCCACAAAGCUUGAGAGCAUCUUCGGAUCCAGAGGCAGCAGCCUUCGGUGGCGCGAUAGCGCCAACGUUCUCAACUAUGACACGCAAAACGCGUGCUCCGUUGUCUGGAGUUUAUCAUG [A29U G62C G70A A137U A138C]
GGAUCUUCUCGAUCUAACAAAAAAGACAUAUCUGCCACAAAGCUUGAGAGCAUCUUCGCAUGCGGAGGCGGCAGCCUUCGGUGGCGCGAUAGCGCGAACGUUCCCAACGAUGACACGCAAAACGCGUGCUCCGUUGAAUGGAGUUUAUCAUG [A29U G59C A64G C96G U104C U109G]
GGAUCUUCUCGAUCUAACAAAAAAGACAUAUCUGCCACAAAGCUUGAGAGCAUCUUCAGAUGCAGAGGCGGCAGCCUUCGGUGGGGCGAUAGCGCCAACGUUCUCAACUAUGACACGCAAAACGCGUGCUCCGUUGACUGGAGUUUAUCAUG [A29U G58A C85G A138C]
